Source: patent publication US20240109974A1 (SHANDONG SIMCERE BIOPHARMACEUTICAL, published 2024)
Residue numbers refer to the chain shown, from its start.

T1: human TNFR2 on the surface of CHO-TNFR2 cells (human, UniProt P20333 23-461)
T1 construct: whole, on cells
T1 sequence (looked up): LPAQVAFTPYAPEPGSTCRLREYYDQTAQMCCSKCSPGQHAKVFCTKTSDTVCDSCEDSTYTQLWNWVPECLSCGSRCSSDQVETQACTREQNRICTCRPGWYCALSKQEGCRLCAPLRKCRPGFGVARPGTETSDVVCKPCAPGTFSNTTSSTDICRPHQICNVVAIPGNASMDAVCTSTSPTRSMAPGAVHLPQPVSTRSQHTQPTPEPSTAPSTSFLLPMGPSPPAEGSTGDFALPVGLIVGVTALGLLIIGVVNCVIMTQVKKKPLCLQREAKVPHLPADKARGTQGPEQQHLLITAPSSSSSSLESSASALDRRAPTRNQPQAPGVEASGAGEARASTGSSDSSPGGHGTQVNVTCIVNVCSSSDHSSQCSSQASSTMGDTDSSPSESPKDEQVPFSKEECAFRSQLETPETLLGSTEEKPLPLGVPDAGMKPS

T2: Human TNFR2-His (Sino 10417-H08H) (human, UniProt P20333 23-257)
T2 construct: Bought protein; also called recombinant human TNFR2 protein; not shown: His tag
T2 sequence (looked up): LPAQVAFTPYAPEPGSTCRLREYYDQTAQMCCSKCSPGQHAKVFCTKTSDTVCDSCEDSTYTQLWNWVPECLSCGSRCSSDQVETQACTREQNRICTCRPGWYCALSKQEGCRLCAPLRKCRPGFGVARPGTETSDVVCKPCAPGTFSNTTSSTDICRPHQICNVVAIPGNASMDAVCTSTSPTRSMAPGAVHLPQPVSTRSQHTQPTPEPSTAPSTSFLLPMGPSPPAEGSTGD

B1: 219-Hu3 (antibody, V domains shown)
VH: QVQLVQSGAEVKKPGSSVKVSCKASGYSFTNYWMNWVRQAPGQGLEWMGMIHPSDTETRLNQNFKDRVTITADKSTSTAYMELSSLRSEDTAVYYCARGEGLGAARSVSMDYWGQGTLVTVSS
VL: DIQMTQSPSSLSASVGDRVTITCRASQDISNYLNWYQQKPDGTVKLLIYYTAILHSGVPSRFSGSGSGTDYSLTISSLQPEDFATYFCQQGNTLPWTFGQGTKVEIK
notes: also called VH5 + VL5
B2: 219-Hu4 (antibody, V domains shown)
VH: B1 VH with R38K, M48I, R67K, V68A, I70L, A72V
VL: B1 VL
notes: also called VH6 + VL5
B3: 219-Hu5 (antibody, V domains shown)
VH: B1 VH with A72V
VL: B1 VL
notes: also called VH7 + VL5
B4: 219-Hu1 (antibody, V domains shown)
VH: B1 VH with S16A, G44R, A72R, K74T, T76A
VL: B1 VL
notes: also called VH3 + VL5
B5: 219-Hu2 (antibody, V domains shown)
VH: B1 VH with R67K, V68A
VL: B1 VL
notes: also called VH4 + VL5

Target: T1, human TNFR2 on the surface of CHO-TNFR2 …
Experiment: flow cytometry on CHO-TNFR2 cells; AUC against 219-WT
Procedure: (§1) The transfected full-length plasmid of human TNFR2 was purchased from Sino Biological (Cat #HG10417-UT, NCBI Ref Seq: NM_001066.2). The experiment was conducted at a cell density within 80%. The cell medium was discarded; the cells were rinsed with PBS, and digested with 1 ml trypsin for 2 minutes; the digestion was stopped with a Ham's F12 complete medium containing 10% FBS, and then a cell suspension was made. The cell suspension was counted, and then an appropriate amount of cell suspension was centrifuged at 350×g; the supernatant was discarded; a corresponding volume of blocking solution (10% FBS+PBS) at a density of 1×10⁷ cells/ml was added to resuspend the cells, and the mixture was incubated at 4° C. for 30 minutes. After the incubation, the mixture was centrifuged at 350×g to remove the supernatant, and the cells were resuspended in a staining buffer (2% FBS+PBS) to a density of 2×10⁶ cells/ml, and spread onto a 96-well plate, with 50 μl of cell suspension added to each well for later use. The antibody was diluted with PBS for 10-fold gradient dilution from the highest concentration of 20 μg/m (twice the concentration); the diluted antibody was added to the well containing 50 μl of cell suspension, and placed on a microplate shaker for shaking at 500 rpm for 1 minute, so that the antibody was fully mixed with the cells; the mixture was incubated at 4° C. for 1 h. After the incubation, the cells were washed twice with the staining buffer, with 100 μl per well, and centrifuged at 350-g for 5 minutes, and the supernatant was discarded. The PE goat anti-Human IgG Fc antibody (ebioscience, Cat #12-4998-82) was diluted 250-fold with the staining buffer, with a volume of 100 μl per well added to the washed cell wells; the mixture was mixed evenly, and stained at 4° C. for 30 minutes. After the staining, similarly, the cells were washed twice with the staining buffer; finally, the cells were resuspended in 200 μl of staining buffer; signals were detected by a flow cytometer (Thermo Attune NxT). The stronger the signal, the stronger the binding ability of an antibody to TNFR2. The binding curve of an antibody was drawn with antibody concentration as the abscissa and corresponding mean fluorescence intensity (MFI) fold as the ordinate, and fitted with four parameters (GraphPad Prism9) to calculate the EC50 value.

| Binder | % Relative activity (Test antibody/WT antibody) [%] |
| --- | --- |
| B1 | 96.4 |
| B2 | 95.6 |
| B3 | 93.3 |
| B4 | 110 |
| B5 | 103 |

Target: T2, Human TNFR2-His (Sino 10417-H08H)
Experiment: ELISA, human TNFR2-His coated; EC50 against 219-WT
Procedure: The test humanized antibody against TNFR2 (as described in Example 1, the antibody was comprised of variable regions linked to IgG-Fc; the WT chimeric antibody also adopted the IgG-Fc structure) was subjected to 3.33-fold gradient dilution, loaded with 100 μl/well, and incubated with shaking at room temperature for 1.5 hours. The plate was washed, and then a working solution of murine anti-human IgG Fc-HRP (diluted at 1:10000) was added, loaded with 100 μl/well, and incubated with shaking at room temperature for 1.0 hour. The plate was washed again, and then the substrate TMB of HRP was added to develop colour. A stop solution was added to stop the reaction, and then a microplate reader (MD 13) was used to read the absorbance value. The binding curve of an antibody was drawn with antibody concentration as the abscissa and corresponding OD value as the ordinate, and fitted with four parameters (GraphPad Prism9) to calculate the EC50 value. The smaller the EC50 value, the stronger the binding ability of an antibody to human/cynomolgus monkey TNFR2. The binding effect of a humanized antibody was normalized to its corresponding human-murine chimeric antibody WT (see SEQ ID NOs: 38-43 for the sequence). The higher the percentage value, the better the binding effect of the humanized antibody. The results of binding of an anti-TNFR2 antibody to a human TNFR2 protein are shown in FIG. 1 and Table 4, and the results of binding of an anti-TNFR2 antibody to cynomolgus monkey TNFR2 are shown in FIG. 2 and Table 4.

| Binder | % Relative activity (WT antibody/test antibody) [%] |
| --- | --- |
| B1 | 84.4 |
| B2 | 99.7 |
| B3 | 96.5 |
| B4 | 83.1 |
| B5 | 95.9 |

Target: T1, human TNFR2 on the surface of CHO-TNFR2 …
Experiment: flow cytometry on CHO-TNFR2 cells; EC50 against 219-WT
Procedure: as §1

| Binder | % Relative activity (WT antibody/test antibody) [%] |
| --- | --- |
| B1 | 145 |
| B2 | 142 |
| B3 | 147 |
| B4 | 100 |
| B5 | 97.1 |
